In publication PMC10942344 (bioRxiv, 2024):

Columns and labels:
Assay in all cases: SPR
[1] = molecular target: recombinant GP38 of CCHFV Oman-199809166 (CCHFV Oman-199809166, UniProt A0A0U3C6Q7, strain)
[2] = molecular target: recombinant GP38 of CCHFV Kosova-Hoti (CCHFV Kosova-Hoti, UniProt B2BSL7, strain)
[3] = molecular target: recombinant GP38 of CCHFV 200406546-Turkey (CCHFV 200406546-Turkey, UniProt A0A0U2SQZ0, strain)

Measured: Kd

B1: ADI-58048 IgG (antibody, V domains shown)
VH: QLQLQESGPGLVKPSETLSLTCTVSGGSITTSHYYWGWIRQPPGKGLEWVGSMYYSGGIYYNPSLKGRVTISVDTSKNQFSLKLSSVTAADTAVYYCALADAPDDAFDIWGQGTMVTVSS
VL: DIQMTQSPSSLSAFVGDRVTITCRASQSISSYLNWYQQKPGKAPKLLIYAASTLQSGVPSRFSGSGSGTDFTLTISSLQSEDFATYYCQESYSIPFTFGPGTKVDIK
< 0.398 nM: [1] | [2] | [3]
